The results in this text go back to patent US8940299B2, “Method of treating cancer” (Case Western Reserve University, priority 2008, dated 2015).

Data set [1] deals with Complement, IL-2, and IFNγ mRNAs. Briefly: qPCR of complement, IL-2 and IFNγ mRNAs in T cells with PI-103. Format: cell-based, mouse. Background: In qPCR the cycle at which signal appears reflects the starting amount.
Protocol: To test whether this signaling pathway is operational in T cells, we incubated WT T cells with anti-CD3+anti-CD28 plus a specific inhibitor (PI-103) of PI-3Kγ.
We synthesized cDNAs by incubating 20 μl of mRNAs in Sprint PowerScript Single Shots (Clontech, Mountain View, Calif.). A total of 10 μl of diluted cDNA were mixed with 2 μl of primer and 10 μl SYBR green master mix (Applied Biosystems, Foster City, Calif.) and assayed in triplicate on an ABI prism 7000 cycler. In all assays, fold increases are relative to each basal level and standardized to Actin.
The next data set relates to EGF receptor (EGFR). Briefly: EGFR phosphorylation in the 3 tumor lines (immunoprecipitation, anti-phosphotyrosine immunoblot). The data set is classed as cell-based, murine. The source says:
(§1) Unregulated EGFR signaling has causally linked with certain cancers. Additionally, an earlier study in the literature reported that added C5a can induce EGFR phosphorylation in HeLa cells. Based on these two findings, we next asked whether EGFR phosphorylation in cancers cells is in fact dependent on C3aR/C5aR signal transduction. To do this, we cultured each of the 3 tumor lines in the presence of buffer alone, C5aR-A/C3aR-A and anti-C3a/anti-C5a mAb, or vehicle and nonrelevant mAb controls. After 2 hr, we added increasing amounts of EGF, 2 min after which we extracted the cells with NP-40 lysis buffer. We then immuoprecipitated EGFR from lysates with specific antibody and probed immunoblots of the precipitates with anti-phosphtyrosine mAb. […] To determine this C3aR/C5aR dependent step is an intermediary for EGFR phosphorylation, we repeated the above study this time using PI-103, a specific inhibitor of this enzyme. […] In a converse study, we incubated each of the 3 tumor lines without and with added C5a and measured cell growth.
(In general: A western blot detects proteins with antibodies after separation by electrophoresis.)

The next data set concerns phospho-Ser473 AKT. Briefly: AKT phosphorylation in WT T cells stimulated with anti-CD3+anti-CD28 (immunoblot, Luminex). The settings on record: 0.1 μM PI-103, 20 min. Format: cell-based, mouse. Here is the method: FIG. 5 illustrates immunoblots of A) anti-phospho-Ser473 AKT (rep of 5 exps) of WT T cells incubated with anti-CD3+anti-CD28±C5aR-A+C3aR-A (10 ng/ml each). B) anti-phospho-Ser473 AKT (rep of 5 exps) of WT or C5ar1−/−C3ar1−/− T cells incubated with anti-CD3+anti-CD28.
FIG. 6 illustrates C5aR and C3aR Ligation Activates PI3-Kγ, which in turn promotes AKT Phosphorylation. […] (p<0.05). […] (B) WT T cells were incubated at 37° C. with anti-CD3+anti-CD28 (1 μg/ml each) for 3 min after which the cells were incubated for 20 min with buffer or 0.1 μM PI-3Kγ-specific inhibitor PI-103. Extracts were immunoblotted with anti-phospho-Ser^473 AKT or total AKT mAb (representative of five experiments). (C) OT-II T cells were incubated with 0.1 μM OVA323-339, WT DCs, and 0.1 μM PI-103±10 ng/ml C5a. Complement, IL-2, and IFNγ mRNAs were quantitated by qPCR. All error bars are ±SD.
To test whether abrogated CD28 costimulation in the absence or blockade of C5aR+C3aR relates to a requirement for these GCPR signals for optimal AKT phosphorylation, we stimulated WT T cells with anti-CD3+anti-CD28±C5aR-A and C3aR-A and assessed AKT phosphorylation by immunoblotting (FIG. 5A) and Luminex assay (FIG. 6A).
Cells were stimulated for 1 hr with 1 μg/ml anti-CD3 and/or anti-CD28 (BD Biosciences) in serum-free RPMI 1640 for qPCR analyses and for 72 hr for IFNγ ELISPOT assays. […]

Another data set has as its system E0771 (breast cancer). Briefly: Cell growth after mouse C5a treatment in Opti-MEM. Format: cell-based, murine. The following applies: 500 nM C5a, 72 hr culture. Here is the method: (§2) FIG. 2 illustrates graphs showing cell growth in 3 cancer cell lines (a) MCA 205 (fibrosarcoma), (b) B16 (melanoma cell), and (c) E0771 (breast cancer) after mouse C5a treatment in Opti-MEM media (serum-reduced media).
(§3) (a) MCA 205, (b) B16/F10 and (c) E0771. Data are representative of two experiments with duplicates. MCA 205 and E0771 were treated with 500 nM C5a and B16/F10 was treated with 100 nM C5a respectively.
(§4) Three kinds of cancer cell lines (B 16/F10, MCA 205 and E0771) were used for this experiment. Each cell line was cultured in 12-well plates (3×10^4/well) in serum reduced Opti-MEM media (Invitrogen) containing L-glutamine and penicillin+streptomycin for the indicated times (24 hr, 48 hr and 72 hr). C5a (Cell Sciences) in PBS was added in each well at 0, 24 and 48 hr time point to a final concentration 100 nM for B16/F10 and 500 nM for MCA205 and E0771 based on the preliminary experiment. At each time point (24 hr, 48 hr and 72 hr), live cells were trypsinized and counted using trypan blue (Invitrogen, Carlsbad, Calif.). Experiment was repeated two times with duplicates.

The next data set concerns B16/F10 (melanoma cell). Briefly: Cell growth after mouse C5a treatment in Opti-MEM. Format: cell-based, murine. The following applies: 100 nM C5a, 72 hr culture. As for the experimental part:
as §2, §3, §4

In the next data set the test system is MCA 205 (fibrosarcoma). Briefly: Cell growth after mouse C5a treatment in Opti-MEM. Format: cell-based, murine. The following applies: 500 nM C5a, 72 hr culture. Here is the method: as §2, §3, §4
In another data set the test system is 3 tumor lines. Briefly: Cell growth of the 3 tumor lines without and with added C5a. The settings on record: all 3 tumor lines. The data set is classed as cell-based, murine.
Source text: as §1

The next data set deals with PI-3Kγ. Briefly: PI-3Kγ enzyme activity in immunoprecipitates of tumor lines with added C5a. Format: cell-based, murine. The settings on record: PI-3Kγ immunoprecipitates.
Source text: as §1

For another data set, the system named is T cells. Briefly: In vitro T cell viability in serum-free HL-1 medium. The data set is classed as cell-based, mouse. The following applies: 300 ng/ml C5a added at time 0 and 90 min, both knockouts. Here is the method:
FIG. 7 illustrates constitutive C5a and C3a Production and Signaling via the C5aR and C3aR GPCRs Influences Cell Viability In Vitro and In Vivo. […] (B) WT and C5ar1^−/−, C3ar1^−/−, and C5ar1^−/− C3ar1^−/− T cells were incubated for 6 hr in serum-free HL-1 medium and viability assayed. (C) WT T cells were incubated at 37° C. for 6 hr in HL-1 medium±anti-C3a, anti-C5a, or anti-C3a+anti-C5a and viability assessed. (D) C3^−/− and C5-deficient T cells were incubated for 6 hr in HL-1 medium±300 ng/ml C5a added at time 0 and 90 min (E) Spleens from naive WT, C3ar1^−/−, C5ar1^−/−, and C3ar1^−/− C5ar1^−/− mice were isolated (three to five animals per group), total cell numbers were counted, and the CD3^+ fraction was determined by flow cytometry (WT=10%, C5ar1^−/−=5.4%, C3ar1^−/−=6.3, and C5ar1^−/− C3ar1^−/−=4.1%). (F) Immediately after isolation and labeling, 10^6 CFSE-labeled WT T cells and CellTracker Red CMTPX-labeled C5ar1^−/− C3ar1^−/− T cells were adoptively cotransferred into the same SCID mice (n=4 mice per group for each time point). […]
To test this possibility, we compared the survival of WT and C5ar1^−/− C3ar1^−/− T cells in vitro […]. […] Fewer surviving C5ar1^−/− C3ar1^−/− T cells were detected at 6 hr, confirming that disrupted autocrine signaling through both the C5aR and C3aR contributed to the decline (FIG. 7B). […]

Consider `Oc1cccc(-c2nc(N3CCOCC3)c3oc4ncccc4c3n2)c1` [PI-103], for which, in data set [1] (0.1 μM PI-103), the “upregulation of IL-2 and IFNγ mRNA expression” value is “eliminated”; the “upregulation of complement gene expression” value is recorded as “prevented”. Moreover, the “EGF induced EGFR phosphorylation” value in the data set on EGF receptor (EGFR) (3 tumor lines, 2 hr pre-treatment, increasing amounts of EGF for 2 min) is listed as “inhibited EGFR phosphorylation in an identical fashion”. The “anti-CD3+anti-CD28-induced phosphorylation of AKT” value in the data set on phospho-Ser473 AKT is “abrogated”.

B1: C5a: Murine C5a complement anaphylatoxin from Cell Sciences (protein)
chain: NLHLLRQKIEEQAAKYKHSVPKKCCYDGARVNFYETCEERVARVTIGPLCIRAFNECCTIANKIRKESPHKPVQLGR
On to B1, for which the “cell survival in comparison with control” value in the data set with E0771 (breast cancer), in the data set with B16/F10 (melanoma cell) and in the data set with MCA 205 (fibrosarcoma) was “enhances cell survival” throughout. Besides, in the data set with 3 tumor lines, the tumor cell numbers result is “increased tumor cell numbers”. Moreover, the PI-3Kγ enzyme activity entry with PI-3Kγ is on record as “augmented PI-3Kγ enzyme activity”. Also, in data set [1] (0.1 μM PI-103 + 10 ng/ml C5a), the “overcoming of the suppressive effects of PI-103 by added C5a” value is “could not be overcome”. In addition, the EGFR phosphorylation entry in the data set with EGF receptor (EGFR) (anti-EGFR immunoprecipitates, added C5a) is “augmented EGFR phosphorylation”. The “augmentation of 6 hr viability of C5-deficient or C3−/− T cells” value in the data set on T cells was around 25%.
